The supplement of paper PMC9876800

Test system: peptide library, one residue held at a place counted from the S/T acceptor
Experiment: relative phosphorylation of the sub-library (ratio to the mean residue at this position); higher = residue favoured
Procedure, shortened: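 Human or orthologue kinase constructs, purified and recombinant, were incubated under kinase-specific conditions in 384-well plates with biotinylated degenerate peptide sub-libraries. Each sub-library fixed one residue at one position around a central Ser/Thr. Incubations lasted 90 min with peptides at 50 μM and 50 μM ATP spiked with γ-32P-ATP, after which spots on streptavidin membranes were phosphorimaged and quantified by densitometry. Relative sub-library phosphorylation is a ratio to the mean residue at that position.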

MAPKAPK3, construct: Full length, human, sequence (Q16644 whole entry, looked up): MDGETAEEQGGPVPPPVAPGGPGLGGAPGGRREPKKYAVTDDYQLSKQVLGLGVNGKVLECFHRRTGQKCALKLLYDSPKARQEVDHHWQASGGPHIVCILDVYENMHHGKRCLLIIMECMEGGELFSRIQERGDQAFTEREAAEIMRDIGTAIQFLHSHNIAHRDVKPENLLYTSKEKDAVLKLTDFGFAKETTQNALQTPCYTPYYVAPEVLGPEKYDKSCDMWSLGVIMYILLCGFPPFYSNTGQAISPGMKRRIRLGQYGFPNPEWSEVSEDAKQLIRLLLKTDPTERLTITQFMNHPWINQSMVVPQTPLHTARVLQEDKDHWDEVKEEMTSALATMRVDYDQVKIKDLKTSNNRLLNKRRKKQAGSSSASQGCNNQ
PRKDC, construct: Full length, human, sequence (P78527 whole entry, looked up): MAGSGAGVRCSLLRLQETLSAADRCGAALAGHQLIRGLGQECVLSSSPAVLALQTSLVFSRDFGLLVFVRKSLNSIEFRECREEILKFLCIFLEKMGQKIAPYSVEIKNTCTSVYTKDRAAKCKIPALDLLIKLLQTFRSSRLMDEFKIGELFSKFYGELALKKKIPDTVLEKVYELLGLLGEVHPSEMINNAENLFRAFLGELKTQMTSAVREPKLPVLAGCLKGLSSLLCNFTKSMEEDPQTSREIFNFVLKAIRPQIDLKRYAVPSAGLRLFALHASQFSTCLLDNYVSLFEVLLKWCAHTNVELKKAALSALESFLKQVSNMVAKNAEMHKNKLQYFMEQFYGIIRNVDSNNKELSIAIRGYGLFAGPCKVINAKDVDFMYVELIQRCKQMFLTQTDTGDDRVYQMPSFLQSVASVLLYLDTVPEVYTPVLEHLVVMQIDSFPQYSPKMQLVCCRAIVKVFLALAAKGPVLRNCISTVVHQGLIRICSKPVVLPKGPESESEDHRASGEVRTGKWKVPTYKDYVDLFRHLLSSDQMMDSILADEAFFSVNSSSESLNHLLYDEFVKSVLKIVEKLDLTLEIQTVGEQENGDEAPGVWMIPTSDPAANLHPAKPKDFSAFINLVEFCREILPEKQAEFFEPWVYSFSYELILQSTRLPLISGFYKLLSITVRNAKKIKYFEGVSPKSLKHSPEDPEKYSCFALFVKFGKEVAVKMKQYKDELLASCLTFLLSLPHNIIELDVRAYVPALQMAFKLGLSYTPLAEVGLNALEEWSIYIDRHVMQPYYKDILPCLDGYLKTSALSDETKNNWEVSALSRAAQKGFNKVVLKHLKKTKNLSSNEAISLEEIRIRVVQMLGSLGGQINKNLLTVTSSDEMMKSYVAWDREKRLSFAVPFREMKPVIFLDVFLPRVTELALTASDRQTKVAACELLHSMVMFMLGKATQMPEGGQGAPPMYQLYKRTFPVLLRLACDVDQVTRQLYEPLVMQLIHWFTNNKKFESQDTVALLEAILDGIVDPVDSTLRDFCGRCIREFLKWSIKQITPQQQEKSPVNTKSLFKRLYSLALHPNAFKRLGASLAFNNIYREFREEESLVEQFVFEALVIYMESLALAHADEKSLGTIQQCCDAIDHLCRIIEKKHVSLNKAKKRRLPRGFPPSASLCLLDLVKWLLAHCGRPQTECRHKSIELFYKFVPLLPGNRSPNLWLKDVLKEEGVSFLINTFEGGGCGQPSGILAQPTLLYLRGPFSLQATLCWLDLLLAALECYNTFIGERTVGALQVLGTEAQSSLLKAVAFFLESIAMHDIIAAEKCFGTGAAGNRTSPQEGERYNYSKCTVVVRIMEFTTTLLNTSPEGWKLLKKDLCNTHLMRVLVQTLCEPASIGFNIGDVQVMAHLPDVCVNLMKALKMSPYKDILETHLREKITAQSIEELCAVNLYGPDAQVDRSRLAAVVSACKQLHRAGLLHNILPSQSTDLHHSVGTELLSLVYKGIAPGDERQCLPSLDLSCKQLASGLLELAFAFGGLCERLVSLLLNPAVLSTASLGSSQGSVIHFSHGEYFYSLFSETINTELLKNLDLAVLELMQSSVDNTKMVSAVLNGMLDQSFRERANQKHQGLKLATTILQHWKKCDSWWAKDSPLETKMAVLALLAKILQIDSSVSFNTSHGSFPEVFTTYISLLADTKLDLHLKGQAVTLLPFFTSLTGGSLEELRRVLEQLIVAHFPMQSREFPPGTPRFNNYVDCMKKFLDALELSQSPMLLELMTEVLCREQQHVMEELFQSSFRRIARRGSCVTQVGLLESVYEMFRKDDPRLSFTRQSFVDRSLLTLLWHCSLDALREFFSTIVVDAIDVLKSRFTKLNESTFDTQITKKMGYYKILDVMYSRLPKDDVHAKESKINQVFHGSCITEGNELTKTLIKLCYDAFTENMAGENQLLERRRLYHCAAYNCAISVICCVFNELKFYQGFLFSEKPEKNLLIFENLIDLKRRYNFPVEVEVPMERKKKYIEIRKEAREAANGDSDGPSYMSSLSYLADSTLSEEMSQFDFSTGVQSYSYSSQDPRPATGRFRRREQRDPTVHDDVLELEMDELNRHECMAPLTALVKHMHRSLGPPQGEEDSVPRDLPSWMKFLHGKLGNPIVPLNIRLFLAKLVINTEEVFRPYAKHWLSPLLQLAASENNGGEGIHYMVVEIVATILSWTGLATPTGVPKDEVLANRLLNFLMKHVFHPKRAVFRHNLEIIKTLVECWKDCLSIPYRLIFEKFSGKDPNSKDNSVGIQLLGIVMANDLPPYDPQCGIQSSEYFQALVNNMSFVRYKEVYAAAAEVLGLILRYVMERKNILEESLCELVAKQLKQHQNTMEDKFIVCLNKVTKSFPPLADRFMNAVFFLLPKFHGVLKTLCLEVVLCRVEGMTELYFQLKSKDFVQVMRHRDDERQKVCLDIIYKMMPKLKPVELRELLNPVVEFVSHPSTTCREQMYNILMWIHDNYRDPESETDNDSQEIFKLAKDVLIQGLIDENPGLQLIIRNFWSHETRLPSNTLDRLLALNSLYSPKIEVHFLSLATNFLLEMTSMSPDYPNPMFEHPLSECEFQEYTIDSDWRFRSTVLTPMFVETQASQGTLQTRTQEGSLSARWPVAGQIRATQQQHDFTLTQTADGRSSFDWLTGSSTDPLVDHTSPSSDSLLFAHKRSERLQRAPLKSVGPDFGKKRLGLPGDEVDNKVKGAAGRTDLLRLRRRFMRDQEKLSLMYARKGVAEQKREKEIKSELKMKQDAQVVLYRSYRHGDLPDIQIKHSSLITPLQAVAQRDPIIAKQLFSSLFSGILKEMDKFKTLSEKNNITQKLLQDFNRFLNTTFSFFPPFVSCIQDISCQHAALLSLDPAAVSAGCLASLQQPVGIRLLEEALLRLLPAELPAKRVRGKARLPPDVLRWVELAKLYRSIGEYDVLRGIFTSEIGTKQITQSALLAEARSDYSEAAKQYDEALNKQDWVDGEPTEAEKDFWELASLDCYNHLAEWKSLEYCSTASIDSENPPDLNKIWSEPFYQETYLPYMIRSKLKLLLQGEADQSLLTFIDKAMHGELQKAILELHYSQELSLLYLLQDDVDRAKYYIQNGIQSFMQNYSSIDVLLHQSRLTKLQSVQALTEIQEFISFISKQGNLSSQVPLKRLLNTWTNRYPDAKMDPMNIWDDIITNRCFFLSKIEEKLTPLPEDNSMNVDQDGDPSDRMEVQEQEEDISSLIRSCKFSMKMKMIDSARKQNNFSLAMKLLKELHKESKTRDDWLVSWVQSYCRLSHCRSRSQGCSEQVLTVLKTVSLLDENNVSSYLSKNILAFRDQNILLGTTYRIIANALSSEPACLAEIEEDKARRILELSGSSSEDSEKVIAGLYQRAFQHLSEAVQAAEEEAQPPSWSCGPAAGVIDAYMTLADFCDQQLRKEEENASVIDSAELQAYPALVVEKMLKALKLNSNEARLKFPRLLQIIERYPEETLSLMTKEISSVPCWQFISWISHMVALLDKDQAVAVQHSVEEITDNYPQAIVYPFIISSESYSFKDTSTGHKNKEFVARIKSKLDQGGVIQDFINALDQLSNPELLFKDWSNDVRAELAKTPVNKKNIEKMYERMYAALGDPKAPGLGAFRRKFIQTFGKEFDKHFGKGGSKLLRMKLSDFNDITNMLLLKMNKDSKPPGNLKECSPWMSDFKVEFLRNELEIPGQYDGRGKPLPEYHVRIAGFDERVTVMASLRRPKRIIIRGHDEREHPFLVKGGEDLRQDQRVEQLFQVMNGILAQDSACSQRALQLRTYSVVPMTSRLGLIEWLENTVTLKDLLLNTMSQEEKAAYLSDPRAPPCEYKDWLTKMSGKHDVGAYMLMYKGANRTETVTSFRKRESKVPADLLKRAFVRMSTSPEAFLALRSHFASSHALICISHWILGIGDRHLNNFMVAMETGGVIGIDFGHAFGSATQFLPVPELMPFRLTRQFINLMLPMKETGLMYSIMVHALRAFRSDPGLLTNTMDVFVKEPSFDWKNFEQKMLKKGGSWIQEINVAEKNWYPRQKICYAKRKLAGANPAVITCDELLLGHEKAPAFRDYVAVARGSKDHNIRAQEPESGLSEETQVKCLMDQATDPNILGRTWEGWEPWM
CDKL5, construct: aa1-352, mouse, sequence (Q3UTQ8 1-352, looked up): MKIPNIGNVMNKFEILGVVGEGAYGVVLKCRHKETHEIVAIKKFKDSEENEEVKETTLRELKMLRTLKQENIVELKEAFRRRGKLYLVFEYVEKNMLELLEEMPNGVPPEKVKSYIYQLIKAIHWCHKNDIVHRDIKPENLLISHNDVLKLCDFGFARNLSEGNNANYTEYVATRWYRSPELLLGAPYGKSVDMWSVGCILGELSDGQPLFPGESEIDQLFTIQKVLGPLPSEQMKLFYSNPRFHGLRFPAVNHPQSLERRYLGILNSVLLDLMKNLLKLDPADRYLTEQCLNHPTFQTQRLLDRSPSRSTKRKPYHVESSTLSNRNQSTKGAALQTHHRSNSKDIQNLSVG

PRKDC, construct: Full length, human (from UniProt P78527)
relative phosphorylation
Details | at +1 | at +2 | at +3 | at +4 | at -1 | at -2 | at -3 | at -4 | at -5
A fixed | 0.244 | 1.11 | 0.987 | 0.798 | 1.14 | 1.28 | 1.11 | 0.908 | 1.01
D fixed | 0.156 | 3.46 | 1.28 | 1.49 | 0.887 | 0.607 | 0.595 | 0.795 | 0.728
E fixed | 0.145 | 2.46 | 1.6 | 1.57 | 1.08 | 0.733 | 0.681 | 0.895 | 0.773
F fixed | 1.31 | 0.561 | 1.15 | 1.13 | 1.22 | 1.25 | 1.13 | 1.02 | 1.15
G fixed | 0.222 | 0.753 | 0.712 | 0.971 | 2.01 | 1.28 | 1.11 | 1.35 | 1.13
H fixed | 0.179 | 0.678 | 0.721 | 0.931 | 0.977 | 1.08 | 1.05 | 1.06 | 1.07
I fixed | 0.705 | 0.41 | 0.935 | 0.728 | 0.352 | 0.969 | 1.08 | 1.07 | 1.03
K fixed | 0.166 | 0.556 | 0.627 | 0.625 | 0.345 | 0.776 | 0.796 | 0.961 | 1.2
L fixed | 2.21 | 0.558 | 0.943 | 0.715 | 0.87 | 0.831 | 1 | 0.953 | 0.957
M fixed | 1.25 | 0.688 | 1.27 | 1.09 | 1.07 | 1.06 | 1.16 | 1.02 | 1.06
N fixed | 0.407 | 0.879 | 0.7 | 0.902 | 1.25 | 1.25 | 0.829 | 0.829 | 0.879
P fixed | 0.638 | 1.2 | 0.943 | 0.825 | 0.725 | 0.937 | 1.02 | 0.907 | 0.944
Q fixed | 7.43 | 1 | 0.818 | 0.869 | 1.2 | 0.99 | 0.891 | 0.85 | 0.656
R fixed | 0.362 | 0.725 | 0.623 | 0.88 | 0.686 | 1.13 | 1.12 | 1.17 | 1.21
V fixed | 0.371 | 0.609 | 1.02 | 0.653 | 0.317 | 0.852 | 0.967 | 0.812 | 0.979
W fixed | 0.309 | 0.656 | 1.36 | 1.6 | 0.835 | 0.916 | 1.16 | 1.18 | 1.11
Y fixed | 0.892 | 0.702 | 1.31 | 1.22 | 2.04 | 1.06 | 1.3 | 1.22 | 1.11
pThr fixed | 0.228 | 1.74 | 1.81 | 1.94 | 0.33 | 0.77 | 0.764 | 0.76 | 0.72
pTyr fixed | 0.194 | 0.795 | 1.87 | 1.87 | 0.926 | 0.966 | 0.829 | 0.692 | 0.654

MAPKAPK3, construct: Full length, human (from UniProt Q16644)
relative phosphorylation
Details | at +1 | at +2 | at +3 | at +4 | at -1 | at -2 | at -3 | at -4 | at -5
A fixed | 0.674 | 1.05 | 1.17 | 1.02 | 0.861 | 1.42 | 0.885 | 1.11 | 0.659
D fixed | 0.406 | 1.06 | 1.47 | 1.21 | 0.649 | 0.266 | 0.193 | 0.495 | 0.203
E fixed | 0.637 | 0.868 | 1.52 | 1.02 | 0.573 | 0.386 | 0.222 | 0.764 | 0.187
F fixed | 1.04 | 0.749 | 0.722 | 0.727 | 1.05 | 0.806 | 0.438 | 0.896 | 1.97
G fixed | 0.54 | 0.872 | 1.5 | 1.26 | 0.579 | 0.968 | 0.614 | 0.88 | 0.453
H fixed | 1.26 | 1.31 | 1.05 | 1.01 | 1.23 | 0.903 | 1.34 | 1.12 | 0.689
I fixed | 1.21 | 0.813 | 0.518 | 0.711 | 0.838 | 0.462 | 0.211 | 0.795 | 1.31
K fixed | 1.07 | 0.94 | 0.807 | 1.14 | 1.3 | 0.927 | 2.05 | 1.79 | 0.646
L fixed | 1.05 | 0.794 | 0.645 | 0.823 | 1.24 | 1.04 | 0.314 | 1.12 | 1.71
M fixed | 1.31 | 0.826 | 0.675 | 0.84 | 1.21 | 1.5 | 0.487 | 1.26 | 1.2
N fixed | 1.08 | 1.26 | 1.13 | 1.16 | 1.13 | 0.857 | 0.682 | 0.76 | 0.361
P fixed | 0.229 | 1.27 | 1.82 | 1.54 | 1.22 | 0.638 | 0.883 | 0.627 | 1.15
Q fixed | 1.21 | 1.13 | 1.01 | 1.15 | 0.973 | 2.92 | 0.919 | 1.13 | 0.688
R fixed | 1.7 | 1.26 | 0.851 | 1.04 | 1.23 | 1.6 | 6.2 | 1.64 | 1.41
V fixed | 1.45 | 0.974 | 0.707 | 0.758 | 0.99 | 0.724 | 0.252 | 0.872 | 1.13
W fixed | 0.878 | 0.795 | 0.66 | 0.919 | 0.716 | 0.786 | 0.796 | 0.804 | 2.1
Y fixed | 1.24 | 1.02 | 0.745 | 0.67 | 1.21 | 0.788 | 0.521 | 0.931 | 1.15
pThr fixed | 0.99 | 0.759 | 0.687 | 1.1 | 0.449 | 0.345 | 0.244 | 0.464 | 0.333
pTyr fixed | 1.79 | 0.934 | 1.05 | 0.812 | 0.732 | 0.334 | 0.233 | 0.572 | 0.563

MAPK14, construct: Full length, human (from UniProt Q16539)
relative phosphorylation
Details | at +1 | at +2 | at +3 | at +4 | at -1 | at -2 | at -3 | at -4 | at -5
A fixed | 1.53 | 1.11 | 1.23 | 0.76 | 1.11 | 1.26 | 1.35 | 1.05 | 0.942
D fixed | 0.147 | 0.674 | 0.665 | 0.783 | 0.616 | 0.425 | 0.833 | 0.947 | 0.761
E fixed | 0.135 | 0.652 | 0.727 | 0.67 | 0.84 | 0.319 | 1.22 | 0.981 | 0.935
F fixed | 0.403 | 0.864 | 1 | 1.47 | 0.795 | 0.59 | 0.769 | 1.01 | 0.997
G fixed | 1.24 | 1.3 | 1.17 | 1.05 | 1.35 | 0.91 | 1.67 | 1.16 | 1.18
H fixed | 0.346 | 1.11 | 0.846 | 0.89 | 1.06 | 0.499 | 1.01 | 0.859 | 1
I fixed | 0.337 | 1.29 | 1.53 | 0.996 | 0.649 | 0.93 | 0.957 | 1.16 | 1.12
K fixed | 0.34 | 1.33 | 0.654 | 1.06 | 0.922 | 0.594 | 0.908 | 1.09 | 1.24
L fixed | 0.412 | 1.12 | 0.877 | 1.07 | 1.39 | 1.43 | 0.87 | 1.21 | 1.16
M fixed | 0.408 | 0.967 | 0.926 | 1.11 | 1.55 | 1.14 | 1.07 | 1.15 | 1.05
N fixed | 0.344 | 0.797 | 0.611 | 0.716 | 0.809 | 0.548 | 0.887 | 0.837 | 0.785
P fixed | 9.61 | 0.697 | 1.64 | 0.88 | 1.14 | 4.82 | 1.27 | 1.03 | 1.27
Q fixed | 0.277 | 0.903 | 0.673 | 0.895 | 1.1 | 0.686 | 0.892 | 0.898 | 0.871
R fixed | 0.424 | 1.44 | 0.926 | 1.21 | 1.42 | 0.752 | 1.11 | 0.959 | 1.03
V fixed | 0.366 | 1.09 | 1.43 | 0.801 | 0.755 | 1.09 | 0.727 | 0.767 | 0.757
W fixed | 0.37 | 0.751 | 1.1 | 1.42 | 0.637 | 0.507 | 0.64 | 0.945 | 0.746
Y fixed | 0.31 | 0.914 | 0.998 | 1.21 | 0.866 | 0.492 | 0.807 | 0.934 | 1.16
pThr fixed | 0.432 | 1.1 | 0.892 | 0.516 | 0.341 | 0.619 | 1.02 | 0.89 | 0.939
pTyr fixed | 0.397 | 0.625 | 1.16 | 0.674 | 0.632 | 0.435 | 0.834 | 0.943 | 1.33

CDKL5, construct: aa1-352, mouse (from UniProt Q3UTQ8)
relative phosphorylation
Details | at +1 | at +2 | at +3 | at +4 | at -1 | at -2 | at -3 | at -4 | at -5
A fixed | 4.03 | 0.798 | 1.01 | 0.928 | 1.15 | 0.826 | 0.761 | 1.03 | 1.12
D fixed | 0.548 | 0.548 | 0.634 | 0.701 | 0.779 | 0.559 | 0.412 | 0.625 | 0.556
E fixed | 0.528 | 0.56 | 0.567 | 0.593 | 0.581 | 0.543 | 0.427 | 0.652 | 0.543
F fixed | 0.588 | 0.903 | 1.03 | 1.02 | 0.782 | 0.665 | 0.49 | 0.866 | 1.07
G fixed | 1.51 | 0.936 | 1.03 | 1.07 | 1.22 | 1.06 | 0.65 | 1.04 | 1.24
H fixed | 0.679 | 1.32 | 0.979 | 1.19 | 0.916 | 0.7 | 0.61 | 0.928 | 1.17
I fixed | 0.584 | 0.853 | 0.914 | 0.915 | 0.812 | 0.681 | 0.559 | 0.9 | 0.958
K fixed | 0.861 | 1.77 | 1.42 | 1.25 | 1.49 | 0.976 | 0.826 | 1.46 | 1.24
L fixed | 0.564 | 0.851 | 0.896 | 0.925 | 1.04 | 0.817 | 0.516 | 0.938 | 0.974
M fixed | 0.6 | 0.832 | 0.876 | 0.94 | 1.08 | 0.718 | 0.531 | 0.997 | 0.972
N fixed | 0.592 | 0.924 | 0.895 | 1.01 | 0.737 | 0.575 | 0.6 | 0.861 | 0.8
P fixed | 2.33 | 0.697 | 1.07 | 1.09 | 1.11 | 5.09 | 0.758 | 1.1 | 0.909
Q fixed | 0.704 | 0.903 | 0.926 | 0.909 | 1.1 | 0.693 | 0.658 | 1.03 | 0.854
R fixed | 1.06 | 2.48 | 1.71 | 1.51 | 1.49 | 1.05 | 7.65 | 1.9 | 1.65
V fixed | 0.624 | 0.757 | 1.01 | 0.798 | 0.885 | 0.715 | 0.538 | 0.977 | 0.88
W fixed | 0.631 | 0.828 | 0.852 | 1.17 | 1.04 | 0.691 | 0.515 | 0.847 | 1.07
Y fixed | 0.563 | 1.04 | 1.19 | 0.987 | 0.794 | 0.645 | 0.499 | 0.844 | 0.994
pThr fixed | 0.581 | 0.54 | 0.682 | 0.65 | 0.567 | 0.588 | 0.456 | 0.785 | 0.702
pTyr fixed | 0.522 | 0.61 | 0.636 | 0.626 | 0.53 | 0.534 | 0.458 | 0.652 | 0.594
